# Test results taken from patent US20190106487A1 (Sanofi, published 2019).
# Residue numbers refer to the chain shown, from its start.
# B1: P013.S.02.B.F05 (antibody, V domains shown)
# VH: RSLEESGGDLVKPGTSLTLTCTASGFSFSGNYYMCWVRQAPGKGLEWIACIVVGSGGNTYYAGWAKRRFTISKTSSTTVTLQMTSLTAADTATYFCASGSYDDYGDYWYFTLWGQGTLVTVSS
# VL: AIDMTQTPSPASAGVGDTVTINCQASENIYNFLAWYQQKPGHSPKLLIYVASKLASGVPSRFKGSGSGTQFTLTISDVQSDDAATYYCQQTYRYNDGDTAFGGGTEVVVK
# notes: rabbit monoclonal antibody; also called P013.A.00109.B04
# B2: P013.S.02.B.D05 (antibody, V domains shown)
# VH: QQQLVESGGGLVKPGASLTLTCKASGFSFSSGYYMCWVRQAPGKGLEWIACIGMGSGKTYYASWAKGRFTISKTSSTTVTLQMTSLTAADTATYFCARKDGSGNEHYNLWGPGTLVTVSS
# VL: DIVMTQTPASVEAAVGGTVTIRCQASQSISSYLAWYQRKPGQPPKVLIYKASTLASGVSSRFKGSGSGTEYTLTISDLESADAATYYCQQGYASSGVDNVFGGGTEVVVK
# notes: rabbit monoclonal antibody; also called P013.A.00086.B09
# B3: P013.S.02.B.H04 (antibody, V domains shown)
# VH: QSVEESGGRLVKPDETLTLTCTVSGIDLSSYAMGWVRQAPGKGLEYIGIISSSGRTYYANWAKGRFTISKASSTTVDLKITSPTTEDTATYFCARLITVDYYIYDYFNLWGQGTLVTVSS
# VL: AYDMTQTPASVEAAVGGTVTIKCQASQSISSYLSWYQQKPGQPPKLLIYGASTLASGVPSRFKGSGSGTEYTLTISGVESDDAATYYCQQGYSYNNVDNTFGGGTEVVVK
# notes: rabbit monoclonal antibody; also called P013.A.00029.F11
# B4: P013.S.01.B.C03 (antibody, V domains shown)
# VH: QSVEESGGRLVTPGTPLTLTCTVSGIDLSNYAMSWVRQAPGKGLEWIGSVISGGSTYYATWARGRFTISKSSTTVDLKMTSLTTEDTATYFCARGCPGYNGDKYTFDLWGPGTLVTVSS
# VL: AFEMTQTPSSVSEPVGGTVTIKCQASQSIYNYLSWYQQKPGQRPKLLIYRASTLASGVPSRFKGSGSGTEFTLTISGVESADAATYYCQQGATSYDIENPFGGGTEVVVK
# notes: rabbit monoclonal antibody; also called P013.A.00133.D11
# B5: P013.S.02.B.E04 (antibody, V domains shown)
# VH: QSLEESGGDLVKPGASLTLTCTASGFSLSSGGMSWVRQAPGKGLGWIGYINTGSGSTYYASWVNGRFTISKTSSTTVSLQMTSLTAADTATYFCAGGLPSDLWGPGTLVTVSS
# VL: DIVMTQTPSSVEAAVGGTVTIKCQASQSINSRLAWYQQKPGQPPKLLIYSASTLASGVSSRFKGSGSGTEFTLTISDLESADGATYYCLSHYLTSSSSYGDAFGGGTEVVVK
# notes: rabbit monoclonal antibody; also called P013.A.00088.A02
# B6: P013.S.02.B.G02 (antibody, V domains shown)
# VH: B5 VH with S34T, G45E, S56R, V63A, N64K, T68I
# VL: DIVMTQTPSSVEAAVGGTVTIKCQASQSINSRLAWYQQKPGQPPKLLIYDASTLASGVSSRFSGSGTEFTLTISDLESADGATYYCLSHYLTSSSSYGNAFGGGTEVVVK
# notes: rabbit monoclonal antibody; also called P013.A.00014.C07
# B7: P013.S.01.B.A02 (antibody, V domains shown)
# VH: QSVEESGGRLVTPGTPLTLTCTVSGIDLSSYAMGWVRQAPGKGLEYIGVITSSATTYYASWAKGRFTISKTSSTTVDLRVTSLTTEDTATYFCARGGPGYSTNTHYAFDPWGPGTLVTVSS
# VL: AFEMTQTPSSVSEPVGGTVTIKCQASQSIYIYLSWYQQKPGQRPKLLIYDASKLASGVPSRFSGSGSGTEFTLTISGVQSDDAATYYCQQGATTYNVDNVFGGGTEVVVK
# notes: rabbit monoclonal antibody; also called P013.A.00003.H11
# B8: P013.S.01.B.F06 (antibody, V domains shown)
# VH: QSVEESGGRLVTPGTPLTLTCTVSGIDLSSDAVGWVRQAPGKGLEYIGIIVSSGETFYASWARGRCTISKTSSTTVDLRITRLTTEDTATYFCARGGPGYSFDTEYAFDPWGPGTLVTVSS
# VL: AFEMTQTPASVEVAVGGTVTINCQASQSIGSWLSWYQQKVGQRPKLLISRASTLASGVPSRFKGSGSGTEYTLTISGVQSDDAATFYCQQGATTYDVDNVFGGGTEVVVR
# notes: rabbit monoclonal antibody; also called P013.A.00045.E09
# Biological target: T1, human IL-1RAcP on 293T/17-FR cells (human, UniProt Q9NPH3 21-570)
# T1 sequence (looked up): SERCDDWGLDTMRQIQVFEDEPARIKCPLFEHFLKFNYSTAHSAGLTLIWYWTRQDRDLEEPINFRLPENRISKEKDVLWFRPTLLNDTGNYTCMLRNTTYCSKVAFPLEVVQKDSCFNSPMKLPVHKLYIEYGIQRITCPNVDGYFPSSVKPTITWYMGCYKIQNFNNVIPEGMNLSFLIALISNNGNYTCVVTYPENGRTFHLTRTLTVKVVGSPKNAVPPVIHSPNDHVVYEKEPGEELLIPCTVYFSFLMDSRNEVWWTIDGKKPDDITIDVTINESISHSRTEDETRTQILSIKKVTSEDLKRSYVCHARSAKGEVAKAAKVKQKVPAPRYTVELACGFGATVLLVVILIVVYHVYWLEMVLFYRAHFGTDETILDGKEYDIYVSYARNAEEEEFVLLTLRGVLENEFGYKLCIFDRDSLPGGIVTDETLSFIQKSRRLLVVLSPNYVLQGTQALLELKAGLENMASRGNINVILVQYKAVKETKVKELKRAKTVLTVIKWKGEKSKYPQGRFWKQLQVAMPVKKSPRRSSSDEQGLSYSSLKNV
# Assay: cell-based or functional assay
Binder,"functional reporter gene assay (% inhibition), 0.04 µg/mL mAb","functional reporter gene assay (% inhibition), 0.2 µg/mL mAb","functional reporter gene assay (% inhibition), 1 µg/mL mAb","functional reporter gene assay (% inhibition), 5 µg/mL mAb","primary supernatant functional assay (% inh.), NF-kB luciferase reporter"
B1,15%,5%,11%,-2%,40%
B2,1%,19%,20%,13%,42%
B3,7%,-6%,15%,4%,52%
B4,54%,77%,84%,90%,83%
B5,11%,9%,8%,-6%,-37%
B6,-2%,0%,5%,0%,-39%
B7,46%,94%,95%,98%,92%
B8,41%,52%,68%,70%,75%

# Biological target: T2, rhIL-1RAcP/Fc Chimera (human, UniProt Q9NPH3 21-359)
# T2 construct: also called P013_03; P013-03
# T2 sequence (looked up): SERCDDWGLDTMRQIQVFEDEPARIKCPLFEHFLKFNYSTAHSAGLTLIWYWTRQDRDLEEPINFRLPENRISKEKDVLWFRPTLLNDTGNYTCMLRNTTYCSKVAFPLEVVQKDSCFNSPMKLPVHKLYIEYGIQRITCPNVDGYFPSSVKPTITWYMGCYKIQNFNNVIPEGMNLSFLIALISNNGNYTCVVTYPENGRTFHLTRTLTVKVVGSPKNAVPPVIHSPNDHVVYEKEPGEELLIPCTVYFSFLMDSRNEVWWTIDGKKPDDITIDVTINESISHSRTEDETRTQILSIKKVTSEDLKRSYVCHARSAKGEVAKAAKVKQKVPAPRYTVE
# Assay: ELISA, primary supernatant, coated hu-IL-1RAcP-Fc
# Outline: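 Plates coated with 0.5 μg/mL Fc-tagged human IL-1RAcP; rabbit B-cell supernatant antibodies detected by peroxidase anti-rabbit IgG Fab2 and TMB, absorbance 450/620 nm. Parallel IL12Rβ1-Fc coating served as counterscreen to exclude tag binders.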
row,Binder,hu-IL1RaP ELISA (OD)
1,B1,0.1 OD
2,B2,3.2 OD
3,B3,3.2 OD
4,B4,3.2 OD
5,B5,3.6 OD
6,B6,3.6 OD
7,B7,3.5 OD
8,B8,2.8 OD

# Biological target: T3, mIL1RAcP-Fc (murine, UniProt Q61730 21-359)
# T3 construct: also called P013_04; P013-04
# T3 sequence (looked up): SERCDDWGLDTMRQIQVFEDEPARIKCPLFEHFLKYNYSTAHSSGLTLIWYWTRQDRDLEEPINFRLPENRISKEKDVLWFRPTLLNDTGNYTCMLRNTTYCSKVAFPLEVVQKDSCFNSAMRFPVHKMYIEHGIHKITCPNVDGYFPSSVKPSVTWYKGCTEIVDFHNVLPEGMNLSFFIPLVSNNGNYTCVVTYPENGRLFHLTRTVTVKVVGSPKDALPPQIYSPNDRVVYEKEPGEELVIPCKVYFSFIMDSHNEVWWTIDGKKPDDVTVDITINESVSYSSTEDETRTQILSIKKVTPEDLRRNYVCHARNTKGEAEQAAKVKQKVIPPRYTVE
# Assay: ELISA, primary supernatant, coated mu-IL-1RAcP-Fc
row,Binder,mu-IL1RaP ELISA (OD)
1,B1,0.4 OD
2,B2,3.3 OD
3,B3,1.7 OD
4,B4,2.3 OD
5,B5,3.5 OD
6,B6,3.4 OD
7,B7,1.2 OD
8,B8,3.4 OD

# Biological target: T3, mIL1RAcP-Fc
# Assay: ELISA, recombinant purified mAb
row,Binder,EC50
1,B1,0.044 µg/mL
2,B2,0.206 µg/mL
3,B3,0.644 µg/mL
4,B4,0.332 µg/mL
5,B5,0.385 µg/mL
6,B6,0.082 µg/mL
7,B7,0.025 µg/mL
8,B8,0.028 µg/mL

# Biological target: T2, rhIL-1RAcP/Fc Chimera
# Assay: ELISA, recombinant purified mAb
row,Binder,EC50
1,B4,0.032 µg/mL
2,B6,0.493 µg/mL
3,B7,0.042 µg/mL
4,B8,0.039 µg/mL
